{
  "source": "patent US6235711A",
  "about": "“Cell adhesion ihibiting compounds” (Zeneca Limited, priority 1996, dated 2001)",
  "key": {"[1]": {"biological_target": "T1, fibronectin (Homo sapiens, UniProt P05556+P13612)", "T1 construct": "host or cells: Jurkat cells; fibronectin coated on plates", "T1 sequence (P13612 34-1032)": "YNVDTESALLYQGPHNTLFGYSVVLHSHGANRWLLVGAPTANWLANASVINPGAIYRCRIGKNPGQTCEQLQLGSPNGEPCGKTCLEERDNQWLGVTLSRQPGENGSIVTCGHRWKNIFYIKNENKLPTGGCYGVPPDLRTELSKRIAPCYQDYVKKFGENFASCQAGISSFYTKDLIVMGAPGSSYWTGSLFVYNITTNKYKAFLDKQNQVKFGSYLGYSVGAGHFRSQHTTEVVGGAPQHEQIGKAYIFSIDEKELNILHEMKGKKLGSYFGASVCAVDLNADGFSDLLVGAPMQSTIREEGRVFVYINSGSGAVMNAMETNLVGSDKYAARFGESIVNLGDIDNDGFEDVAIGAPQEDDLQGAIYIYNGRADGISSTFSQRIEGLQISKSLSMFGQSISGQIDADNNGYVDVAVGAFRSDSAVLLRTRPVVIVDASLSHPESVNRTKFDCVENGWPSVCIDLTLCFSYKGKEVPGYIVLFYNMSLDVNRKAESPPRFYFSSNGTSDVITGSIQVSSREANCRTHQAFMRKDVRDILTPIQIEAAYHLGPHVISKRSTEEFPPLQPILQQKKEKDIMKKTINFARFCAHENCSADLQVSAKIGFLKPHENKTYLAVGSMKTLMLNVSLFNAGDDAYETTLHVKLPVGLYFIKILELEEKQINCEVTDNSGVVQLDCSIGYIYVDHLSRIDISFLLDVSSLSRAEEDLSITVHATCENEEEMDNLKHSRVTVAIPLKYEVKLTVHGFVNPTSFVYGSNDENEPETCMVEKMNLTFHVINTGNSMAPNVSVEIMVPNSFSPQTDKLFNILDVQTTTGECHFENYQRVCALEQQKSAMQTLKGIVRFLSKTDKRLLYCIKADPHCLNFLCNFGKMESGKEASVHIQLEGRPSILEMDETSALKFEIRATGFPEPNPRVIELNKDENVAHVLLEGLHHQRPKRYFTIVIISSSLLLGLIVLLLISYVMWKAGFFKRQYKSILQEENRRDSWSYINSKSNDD", "T1 sequence (P05556 21-798)": "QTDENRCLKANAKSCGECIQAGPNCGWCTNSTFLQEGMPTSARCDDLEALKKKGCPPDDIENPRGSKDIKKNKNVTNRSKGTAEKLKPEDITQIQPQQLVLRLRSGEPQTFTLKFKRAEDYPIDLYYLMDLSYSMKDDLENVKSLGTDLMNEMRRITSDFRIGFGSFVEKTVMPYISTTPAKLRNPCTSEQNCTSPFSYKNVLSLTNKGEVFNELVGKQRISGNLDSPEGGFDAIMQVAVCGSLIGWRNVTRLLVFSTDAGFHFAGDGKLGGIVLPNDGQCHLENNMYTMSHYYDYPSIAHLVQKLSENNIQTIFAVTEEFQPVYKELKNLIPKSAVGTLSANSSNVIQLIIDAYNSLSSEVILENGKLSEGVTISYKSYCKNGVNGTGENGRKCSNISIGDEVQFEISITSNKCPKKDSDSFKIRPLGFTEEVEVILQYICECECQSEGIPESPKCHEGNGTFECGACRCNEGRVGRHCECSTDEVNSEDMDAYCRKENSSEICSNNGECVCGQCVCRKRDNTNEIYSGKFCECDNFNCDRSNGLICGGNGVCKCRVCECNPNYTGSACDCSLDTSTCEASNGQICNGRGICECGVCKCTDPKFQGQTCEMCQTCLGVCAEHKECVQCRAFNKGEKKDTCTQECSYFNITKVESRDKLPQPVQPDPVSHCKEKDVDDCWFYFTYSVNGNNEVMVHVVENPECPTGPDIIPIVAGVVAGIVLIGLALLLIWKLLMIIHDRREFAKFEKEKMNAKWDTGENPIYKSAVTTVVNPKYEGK", "conditions": "cited from earlier work"}, "[2]": {"system": "αvβ3 as well as αIIbβIIIa", "conditions": "cited from earlier work"}, "[3]": {"biological_target": "T2, α4β1 (Homo sapiens, UniProt P05556+P13612)", "T2 construct": "host or cells: Jurkat cells (endogenous integrin)", "T2 sequence (P13612 34-1032)": "as the sequence (P13612 34-1032) above", "T2 sequence (P05556 21-798)": "as the sequence (P05556 21-798) above", "conditions": "Jurkat cells; read-out: IC50, blocking Jurkat cell adhesion to CS-1 coated plates; cited from earlier work"}, "[4]": {"system": "Balb/C female mice", "test": "In vivo ovalbumin delayed type hypersensitivity model", "conditions": "ovalbumin in the footpad", "experimental": "Balb/C female mice (20-25 g) were immunised on the flank with an emulsion of ovalbumin (Sigma; 0.1 ml subcutaneous injection of 2 mg/ml solution mixed (1:1) with complete Freunds adjuvant; Difco). Seven days later the mice were challenged by subplantar injection of ovalbumin (30 μl of 1% heat aggregated ovalbumin in saline) into the left hind foot pad. Swelling of the foot developed over a 24 hour period following which foot pad thickness was measured and compared to the pre-challenge thickness. The percentage increase in foot pad thickness was calculated. Compounds were delivered by continuous infusion at doses within the range from 10 mg/kg/day to 0.001 mg/kg/day from subcutaneous Alzet osmotic minipumps which were implanted 24 hours prior to the ovalbumin challenge. Inhibition of the inflammatory response was calculated comparing vehicle treated animals and compound treated groups (n=5 animals per group)."}, "[5]": {"system": "fibronectin", "conditions": "cited from earlier work"}, "[6]": {"biological_target": "T3, VCAM-1-IgG fusion protein (Homo sapiens, UniProt P05556+P13612)", "T3 construct": "host or cells: HL-60 cells (endogenous integrin); VCAM-1-IgG fusion protein of unstated origin", "T3 sequence (P13612 34-1032)": "as the sequence (P13612 34-1032) above", "T3 sequence (P05556 21-798)": "as the sequence (P05556 21-798) above", "conditions": "HL-60 cells; read-out: IC50, binding of HL-60 cells to VCAM-1-IgG fusion protein; cited from earlier work"}},
  "note": "Positions of bridges follow the written chain, without caps; N, C: chain ends. Non-standard residues stand in square brackets, D forms with d. Residues, ends and D or L forms follow the SMILES beside them. No end group written: not given here. *: point of attachment. Acetyl(1-adamantyl) = O=C(CC12CC3CC(CC(C3)C1)C2)*; NMeF = CN[C@@H](Cc1ccccc1)C(=O)O",
  "data": [
    {"compound": "1-adamantaneacetyl-Cys-Gly-Arg-Gly-Asp-Ser-Pro-Cys ({Acetyl(1-adamantyl)}-CGRGDSPC; disulfide 1-8 (inferred))", "values": [
      {"measurement": "binding of Jurkat cells to fibronectin coated plates", "setting": "[1]", "value": "inhibited the binding"},
      {"measurement": "function in αvβ3 as well as αIIbβIIIa-dependent assays", "setting": "[2]", "value": "inhibited function"},
      {"measurement": "IC50", "setting": "[3]", "value": 30, "unit": "µM"}
    ]},
    {"compound": "CC(C)C[C@@H]1NC(=O)[C@H](Cc2ccccc2)N(C)C(=O)[C@@H](CCCNC(=N)N)NC(=O)[C@@H](CCCNC(=N)N)NC(=O)[C@H](C(C)C)NC(=O)[C@H](CC(=O)O)NC1=O", "note": "[compound 20, c(MePhe-Leu-Asp-Val-D-Arg-D-Arg)] (cyclo(DV[dR][dR][NMeF]L))", "values": [
      {"measurement": "dose required to produce a half-maximal inhibitory response in DTH", "setting": "[4]", "value": 0.01, "unit": "mg/kg/day"}
    ]},
    {"compound": "Arg-Cys-Asp-thioproline-Cys", "values": [
      {"measurement": "leukocyte cell adhesion to fibronectin", "setting": "[5]", "value": "inhibitor"},
      {"measurement": "binding to the 120 kDa chymotryptic fragment of fibronectin", "setting": "[5]; fragment contains the Arg-Gly-Asp central cell binding domain", "value": "inhibited the binding"}
    ]},
    {"compound": "CLHGPEILDVPST", "values": [
      {"measurement": "IC50", "setting": "[3]", "value": 30, "unit": "µM"}
    ]},
    {"compound": "c(Glu-TripLeu-Asp-Val)", "values": [
      {"measurement": "IC50", "setting": "[6]", "value": 94, "unit": "µM"}
    ]},
    {"compound": "c(Glu-Trp-Leu-Asp-Val-Asp) (EWLDVD; cyclised; printed: Glu-Trp-Leu-Asp-Val-Asp)", "values": [
      {"measurement": "IC50", "setting": "[6]", "value": "> 1000", "unit": "µM"}
    ]},
    {"compound": "c(Glu-Trp-Leu-Asp-Val-Pro-Glu-Trp-Leu-Asp-Val) (EWLDVPEWLDV; cyclised; printed: Glu-Trp-Leu-Asp-Val-Pro-Glu-Trp-Leu-Asp-Val)", "values": [
      {"measurement": "IC50", "setting": "[6]", "value": "> 1000", "unit": "µM"}
    ]}
  ]
}
